Results as given in patent US20220010008A1.
Values joined by “and” are separate entries in the source; they are usually repeats but may differ in a detail not shown here. Identical values can stand only once.

Tests used:
[1] = molecular target: recombinant human IL-5 protein with His tag (human) (UniProt P05113); experiment: cell-based or functional assay
[2] = molecular target: recombinant human IL-5 protein (human) (UniProt P05113); experiment: cell-based or functional assay
[3] = molecular target: recombinant human IL-5 protein (human) (UniProt P05113); experiment: ELISA, biotin-human IL-5 on streptavidin plate, Ab 0.0002 nM
[4] = molecular target: recombinant human IL-5 protein (human) (UniProt P05113); experiment: ELISA, biotin-human IL-5 on streptavidin plate, Ab 0.0009 nM
[5] = molecular target: recombinant human IL-5 protein (human) (UniProt P05113); experiment: ELISA, biotin-human IL-5 on streptavidin plate, Ab 0.0043 nM
[6] = molecular target: recombinant human IL-5 protein (human) (UniProt P05113); experiment: ELISA, biotin-human IL-5 on streptavidin plate, Ab 0.0213 nM
[7] = molecular target: recombinant human IL-5 protein (human) (UniProt P05113); experiment: ELISA, biotin-human IL-5 on streptavidin plate, Ab 0.1067 nM
[8] = molecular target: recombinant human IL-5 protein (human) (UniProt P05113); experiment: ELISA, biotin-human IL-5 on streptavidin plate, Ab 0.5333 nM
[9] = molecular target: recombinant human IL-5 protein (human) (UniProt P05113); experiment: ELISA, biotin-human IL-5 on streptavidin plate, Ab 2.6667 nM
[10] = molecular target: recombinant human IL-5 protein (human) (UniProt P05113); experiment: ELISA, biotin-human IL-5 on streptavidin plate, Ab 13.3333 nM
[11] = molecular target: recombinant human IL-5 protein (human) (UniProt P05113); experiment: FACS blocking: biotin-IL-5 bound to CHOK1 IL-5Ra/CSF2RB cells, Ab 0.0004 nM
[12] = molecular target: recombinant human IL-5 protein (human) (UniProt P05113); experiment: FACS blocking: biotin-IL-5 bound to CHOK1 IL-5Ra/CSF2RB cells, Ab 0.0021 nM
[13] = molecular target: recombinant human IL-5 protein (human) (UniProt P05113); experiment: FACS blocking: biotin-IL-5 bound to CHOK1 IL-5Ra/CSF2RB cells, Ab 0.0107 nM
[14] = molecular target: recombinant human IL-5 protein (human) (UniProt P05113); experiment: FACS blocking: biotin-IL-5 bound to CHOK1 IL-5Ra/CSF2RB cells, Ab 0.0533 nM
[15] = molecular target: recombinant human IL-5 protein (human) (UniProt P05113); experiment: FACS blocking: biotin-IL-5 bound to CHOK1 IL-5Ra/CSF2RB cells, Ab 0.2667 nM
[16] = molecular target: recombinant human IL-5 protein (human) (UniProt P05113); experiment: FACS blocking: biotin-IL-5 bound to CHOK1 IL-5Ra/CSF2RB cells, Ab 1.3333 nM
[17] = molecular target: recombinant human IL-5 protein (human) (UniProt P05113); experiment: FACS blocking: biotin-IL-5 bound to CHOK1 IL-5Ra/CSF2RB cells, Ab 6.6667 nM
[18] = molecular target: recombinant human IL-5 protein (human) (UniProt P05113); experiment: FACS blocking: biotin-IL-5 bound to CHOK1 IL-5Ra/CSF2RB cells, Ab 33.3333 nM
[19] = molecular target: recombinant human IL-5 protein with His tag (human) (UniProt P05113); experiment: ELISA, biotin-human IL-5 on streptavidin; antibody 0.0002 nM
[20] = molecular target: recombinant human IL-5 protein with His tag (human) (UniProt P05113); experiment: ELISA, biotin-human IL-5 on streptavidin; antibody 0.0009 nM
[21] = molecular target: recombinant human IL-5 protein with His tag (human) (UniProt P05113); experiment: ELISA, biotin-human IL-5 on streptavidin; antibody 0.0043 nM
[22] = molecular target: recombinant human IL-5 protein with His tag (human) (UniProt P05113); experiment: ELISA, biotin-human IL-5 on streptavidin; antibody 0.0213 nM
[23] = molecular target: recombinant human IL-5 protein with His tag (human) (UniProt P05113); experiment: ELISA, biotin-human IL-5 on streptavidin; antibody 0.1067 nM
[24] = molecular target: recombinant human IL-5 protein with His tag (human) (UniProt P05113); experiment: ELISA, biotin-human IL-5 on streptavidin; antibody 0.5333 nM
[25] = molecular target: recombinant human IL-5 protein with His tag (human) (UniProt P05113); experiment: ELISA, biotin-human IL-5 on streptavidin; antibody 2.6667 nM
[26] = molecular target: recombinant human IL-5 protein with His tag (human) (UniProt P05113); experiment: ELISA, biotin-human IL-5 on streptavidin; antibody 13.3333 nM
[27] = molecular target: recombinant human IL-5 protein (human) (UniProt P05113); experiment: FACS, biotin-IL-5 bound to CHOK1 hIL-5Ra/CSF2RB cells with Ab 0.0004 nM
[28] = molecular target: recombinant human IL-5 protein (human) (UniProt P05113); experiment: FACS, biotin-IL-5 bound to CHOK1 hIL-5Ra/CSF2RB cells with Ab 0.0021 nM
[29] = molecular target: recombinant human IL-5 protein (human) (UniProt P05113); experiment: FACS, biotin-IL-5 bound to CHOK1 hIL-5Ra/CSF2RB cells with Ab 0.0107 nM
[30] = molecular target: recombinant human IL-5 protein (human) (UniProt P05113); experiment: FACS, biotin-IL-5 bound to CHOK1 hIL-5Ra/CSF2RB cells with Ab 0.0533 nM
[31] = molecular target: recombinant human IL-5 protein (human) (UniProt P05113); experiment: FACS, biotin-IL-5 bound to CHOK1 hIL-5Ra/CSF2RB cells with Ab 0.2667 nM
[32] = molecular target: recombinant human IL-5 protein (human) (UniProt P05113); experiment: FACS, biotin-IL-5 bound to CHOK1 hIL-5Ra/CSF2RB cells with Ab 1.3333 nM
[33] = molecular target: recombinant human IL-5 protein (human) (UniProt P05113); experiment: FACS, biotin-IL-5 bound to CHOK1 hIL-5Ra/CSF2RB cells with Ab 6.6667 nM
[34] = molecular target: recombinant human IL-5 protein (human) (UniProt P05113); experiment: FACS, biotin-IL-5 bound to CHOK1 hIL-5Ra/CSF2RB cells with Ab 33.3333 nM

Mepolizumab (antibody) gave a TF1 (IC50), TF1 proliferation induced by IL-5 [1] of 10 pM.

For hIgG control (human IgG) (antibody), the RLU, CTLL-2 proliferation with IL-5, Ab 0.000170667 nM [2] was 57400 RLU and 51000 RLU, the RLU, CTLL-2 proliferation with IL-5, Ab 0.000853333 nM [2] was 58600 RLU and 53800 RLU and the RLU, CTLL-2 proliferation with IL-5, Ab 0.004266667 nM [2] was 57900 RLU and 48200 RLU. The RLU, CTLL-2 proliferation with IL-5, Ab 0.02133333 nM [2] was 59800 RLU and 55900 RLU, the RLU, CTLL-2 proliferation with IL-5, Ab 0.1066667 nM [2] was 58200 RLU and 53500 RLU and the RLU, CTLL-2 proliferation with IL-5, Ab 0.5333334 nM [2] was 56200 RLU and 50500 RLU. For the same substance, the RLU, CTLL-2 proliferation with IL-5, Ab 2.666667 nM [2] was 51200 RLU and 46200 RLU, the RLU, CTLL-2 proliferation with IL-5, Ab 13.33333 nM [2] was 45800 RLU and 46300 RLU and the RLU, CTLL-2 proliferation with IL-5, Ab 66.66666 nM [2] was 43200 RLU and 34400 RLU. For the same substance, the RLU, CTLL-2 proliferation with IL-5, Ab 3.41333E-05 nM [2] was 58600 RLU and 55000 RLU, the RLU, TF-1 proliferation with IL-5, Ab 0.00001 nM [2] was 113000 RLU and 118000 RLU and the RLU, TF-1 proliferation with IL-5, Ab 0.00003 nM [2] was 112000 RLU and 116000 RLU. The RLU, TF-1 proliferation with IL-5, Ab 0.00017 nM [2] was 112000 RLU and 121000 RLU, the RLU, TF-1 proliferation with IL-5, Ab 0.00085 nM [2] was 115000 RLU and 117000 RLU and the RLU, TF-1 proliferation with IL-5, Ab 0.00427 nM [2] was 116000 RLU and 127000 RLU. For the same substance, the RLU, TF-1 proliferation with IL-5, Ab 0.02133 nM [2] was 108000 RLU and 131000 RLU, the RLU, TF-1 proliferation with IL-5, Ab 0.10667 nM [2] was 108000 RLU and 114000 RLU and the RLU, TF-1 proliferation with IL-5, Ab 0.53333 nM [2] was 103000 RLU and 106000 RLU. The RLU, TF-1 proliferation with IL-5, Ab 2.66667 nM [2] was 101000 RLU and 106000 RLU, the RLU, TF-1 proliferation with IL-5, Ab 13.33333 nM [2] was 101000 RLU and 102000 RLU and the OD450 nm [3] was 0.082 OD450 nm and 0.08 OD450 nm. The OD450 nm [4] was 0.08 OD450 nm and 0.078 OD450 nm, the OD450 nm [5] was 0.074 OD450 nm and 0.077 OD450 nm and the OD450 nm [6] was 0.079 OD450 nm and 0.076 OD450 nm. The OD450 nm [7] was 0.078 OD450 nm, the OD450 nm [8] was 0.079 OD450 nm and 0.078 OD450 nm and the OD450 nm [9] was 0.09 OD450 nm and 0.088 OD450 nm. The OD450 nm [10] was 0.172 OD450 nm and 0.07 OD450 nm, the Fluorescence intensity [11] was 88 MFI and the Fluorescence intensity [12] was 83 MFI. For the same substance, the Fluorescence intensity [13] was 85 MFI, the Fluorescence intensity [14] was 86 MFI and the Fluorescence intensity [15] was 88 MFI. The Fluorescence intensity [16] was 84 MFI, the Fluorescence intensity [17] was 83 MFI and the Fluorescence intensity [18] was 84 MFI.

In the case of mIgG control (antibody), the OD450 nm [19] is reported as 0.076 and 0.075, the OD450 nm [20] is reported as 0.075 and the OD450 nm [21] is reported as 0.078 and 0.072. The OD450 nm [22] was 0.074 and 0.079, the OD450 nm [23] was 0.08 and 0.079 and the OD450 nm [24] was 0.08 and 0.077. For the same substance, the OD450 nm [25] was 0.079 and the OD450 nm [26] was 0.108 and 0.115.

In the case of mIgG control (mouse IgG) (antibody), the RLU, CTLL-2 cell proliferation stimulated by IL-5, Ab conc. 0.000170667 nM [2] is reported as 57400 RLU and 51000 RLU, the RLU, CTLL-2 cell proliferation stimulated by IL-5, Ab conc. 0.000853333 nM [2] is reported as 58600 RLU and 53800 RLU and the RLU, CTLL-2 cell proliferation stimulated by IL-5, Ab conc. 0.004266667 nM [2] is reported as 57900 RLU and 48200 RLU. The RLU, CTLL-2 cell proliferation stimulated by IL-5, Ab conc. 0.02133333 nM [2] was 59800 RLU and 55900 RLU, the RLU, CTLL-2 cell proliferation stimulated by IL-5, Ab conc. 0.1066667 nM [2] was 58200 RLU and 53500 RLU and the RLU, CTLL-2 cell proliferation stimulated by IL-5, Ab conc. 0.5333334 nM [2] was 56200 RLU and 50500 RLU. For the same substance, the RLU, CTLL-2 cell proliferation stimulated by IL-5, Ab conc. 2.666667 nM [2] was 51200 RLU and 46200 RLU, the RLU, CTLL-2 cell proliferation stimulated by IL-5, Ab conc. 13.33333 nM [2] was 45800 RLU and 46300 RLU and the RLU, CTLL-2 cell proliferation stimulated by IL-5, Ab conc. 66.66666 nM [2] was 43200 RLU and 34400 RLU. For the same substance, the RLU, CTLL-2 cell proliferation stimulated by IL-5, Ab conc. 3.41333E-05 nM [2] was 58600 RLU and 55000 RLU, the RLU, TF-1 cell proliferation stimulated by IL-5, Ab conc. 0.00001 nM [2] was 113000 RLU and 118000 RLU and the RLU, TF-1 cell proliferation stimulated by IL-5, Ab conc. 0.00003 nM [2] was 112000 RLU and 116000 RLU. For the same substance, the RLU, TF-1 cell proliferation stimulated by IL-5, Ab conc. 0.00017 nM [2] was 112000 RLU and 121000 RLU, the RLU, TF-1 cell proliferation stimulated by IL-5, Ab conc. 0.00085 nM [2] was 115000 RLU and 117000 RLU and the RLU, TF-1 cell proliferation stimulated by IL-5, Ab conc. 0.00427 nM [2] was 116000 RLU and 127000 RLU. For the same substance, the RLU, TF-1 cell proliferation stimulated by IL-5, Ab conc. 0.02133 nM [2] was 108000 RLU and 131000 RLU, the RLU, TF-1 cell proliferation stimulated by IL-5, Ab conc. 0.10667 nM [2] was 108000 RLU and 114000 RLU and the RLU, TF-1 cell proliferation stimulated by IL-5, Ab conc. 0.53333 nM [2] was 103000 RLU and 106000 RLU. The RLU, TF-1 cell proliferation stimulated by IL-5, Ab conc. 2.66667 nM [2] was 101000 RLU and 106000 RLU, the RLU, TF-1 cell proliferation stimulated by IL-5, Ab conc. 13.33333 nM [2] was 101000 RLU and 102000 RLU and the Fluorescence intensity [27] was 86. It also gave a Fluorescence intensity [28] of 81, a Fluorescence intensity [29] of 83 and a Fluorescence intensity [30] of 83. For the same substance, the Fluorescence intensity [31] was 84, the Fluorescence intensity [32] was 83 and the Fluorescence intensity [33] was 85. For the same substance, the Fluorescence intensity [34] was 80.
